We go through 1 molecule from patent US11033620B2, “Combination therapies targeting tumor-associated stroma or tumor cells and microtubules” (BIOMED VALLEY DISCOVERIES, INC., priority 2014, dated 2021).

The assay has as its system H460 cells. The assay is described as follows: Efficacy of M830 in the H460 non-small cell lung carcinoma xenograft model. Type of assay: in vivo, mouse. The following applies: combination partner Paclitaxel. The procedure: Animals were monitored for regression responses.
The statistical tests were not adjusted for multiple comparisons.
Cultured H460 cells were harvested during exponential growth and resuspended in phosphate buffered saline at a concentration of 1×10^8 cells/mL. 1.0×10^7 tumor cells were injected subcutaneously into the flank of athymic nude mice. Animals were euthanized when tumors reached the pre-determined volume endpoint of 2000 mm^3 or on the final day (Day 88), whichever came first.

B1: M830: TEM8 monoclonal antibody (hIgG1), VH SEQ ID NO:5, VL SEQ ID NO:6 (antibody, V domains shown)
VH: EVQLVESGGGVVQPGRSVRLSCAASGFTFSTYTMHWVRQAPGKGLEWVAIISNDGSNKYYADPVRGRFTISRDNSKNTLYLQMNSLRAEDTAVYYCVRGSSWYRGNWFDPWGQGTLVTVSS
VL: DIQMTQSPSSLSASVGDRVTIACRASQTISRYLNWYQQKPGKAPKLLIYAASSLQSGVSSRFSGSGSGTEFTLTISSLQPEDFATYFCQQTYSPPITFGQGTRLEIKR
modifications: TEM830 mAb VH; TEM830 mAb VL
Consider B1, for which the “regression (in % Tumor Reduction vs. Vehicle at Day 21 cell)” value is −61%.
